Source: patent publication US20040029280A1

How the values were obtained:
FGF receptors = test: cell-based or functional assay
[1] = target: Recombinant trimeric Ad5 knob protein with an N-terminal 6-His tag (adenovirus type 5 (Ad5)) (UniProt P11818); test: ELISA on His-tagged Ad5 knob on Ni-NTA strips, detection with anti-FGF2 antibody and anti-rabbit HRP; wells without knob gave 0.35+0.04
[2] = target: Recombinant trimeric Ad5 knob protein with an N-terminal 6-His tag (adenovirus type 5 (Ad5)) (UniProt P11818); test: ELISA on His-tagged Ad5 knob on Ni-NTA strips, detection with anti-FGF2 antibody and anti-rabbit HRP; control
[3] = target: adenoviral fiber knob on AdCMVLuc (Ad5 vector) virions (adenovirus type 5 (Ad5)) (UniProt P11818); test: cell-based or functional assay
[4] = target: recombinant Ad5 knob (knob domain of the adenovirus type 5 fiber protein) (adenovirus type 5 (Ad5)) (UniProt P11818); test: Biacore analysis

## Fab-FGF2 conjugate (1D6.14 Fab chemically conjugated to FGF2 C96S mutein) (from UniProt P09038 1-155)
FGF receptors
  inhibition by anti-FGF2 antibody of infection by the Ad-Fab-FGF2 complex (luciferase), 3T3 cells: 96.1%
  inhibition by anti-FGF2 antibody of infection by the Ad-Fab-FGF2 complex (luciferase), D54 MG cells: 94%
  inhibition by anti-FGF2 antibody of infection by the Ad-Fab-FGF2 complex (luciferase), PANC-1 cells: 96.3%
  inhibition by anti-FGF2 antibody of infection by the Ad-Fab-FGF2 complex (luciferase), SKOV3.1p1 cells: 90.1%
[1]
  absorbance: 3.7 absorbance

## FGF2 mutein (C96S) (from UniProt P09038 1-155) (ligand)
[2]
  absorbance: 1.55 absorbance

## Fab fragment of 1D6.14 anti-Ad5 knob neutralizing antibody
[3]
  block of AdCMV-Luc transduction (luciferase), CVU-1 cells: 20%
  block of AdCMV-Luc transduction (luciferase), KS-SLK cells: > 50%
  block of AdCMV-Luc transduction (luciferase), KSY-1 cells: > 50%
  block of AdCMV-Luc transduction (luciferase), RW376 cells: > 50%
  inhibition of AdCMVLuc infection (luciferase), 3T3 cells: 97%
  inhibition of AdCMVLuc infection (luciferase), D54 MG cells: 98.3%
  inhibition of AdCMVLuc infection (luciferase), PANC-1 cells: 98.8%
  inhibition of AdCMVLuc infection (luciferase), SKOV3.1p1 cells: 69.3%
  inhibition of AdCMVLuc transfection (luciferase), HUVECs: 87%
[4]
  Kd: 2.1 nM
